The source of these data is paper PMC7176406.

The assay has as its target tau (residues 149-395) labeled with Alexa Fluor 488 at C291 (human) (UniProt P10636). Briefly: fluorescence correlation spectroscopy.
Sequence of UniProt P10636 (P10636 466-712 C639S): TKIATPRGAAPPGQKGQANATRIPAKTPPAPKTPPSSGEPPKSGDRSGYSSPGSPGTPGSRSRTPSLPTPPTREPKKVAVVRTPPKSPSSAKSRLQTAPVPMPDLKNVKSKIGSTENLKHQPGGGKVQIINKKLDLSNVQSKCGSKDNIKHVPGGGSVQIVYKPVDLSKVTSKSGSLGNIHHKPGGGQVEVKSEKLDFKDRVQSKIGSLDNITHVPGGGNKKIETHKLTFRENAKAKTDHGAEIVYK

As to “tailless tubulin (subtilisin-cleaved bovine brain tubulin) (from UniProt Q6B856 1-445) (complex)”, the fold weaker affinity than intact tubulin worked out at 5 fold and the maximum increase in diffusion time of tau was determined as 0.15 ms.
